Laboratory results from patent US12545707 (UNIVERSITY OF DELAWARE, dated 2026).
*: point of attachment. TAMRA = 5(6)-carboxytetramethylrhodamine amide on Lys NZ; Butanoyl(4-maleimido) = O=C1C=CC(=O)N1CCCC(=O)*; NBD = O=[N+]([O-])c1ccc(*)c2nonc12

What was measured:
[1] = biological target: the molecule itself; assay: self-association of the dye-labelled peptide into a tetrameric bundle; STORM imaging of the rods
Experimental: With these rigid-rod molecules, the local amino acid sequence along the rods is determined via computational design. With this specified sequence, robust bundle physical assembly, and subsequent covalent polymer formation, one can display desired functionality locally within the polymer chain. High-resolution fluorescence microscopy provides the tool for observation of rigid-rod polymers synthesized with fluorophores attached to specific lysine side chains. Rods with targeted lengths of ~50 nm were first assembled using the same parent peptides as described in FIG. 33 with the short rod termini consisting of bundles displaying thiol functionality (FIG. 33A, more description in Methods). The maleimide-terminated peptides used in the short rod syntheses were functionalized with a desired fluorescent dye (rhodamine; nitrobenzofurazan (NBD); see FIG. 35A). […] After short rod synthesis with desired dye incorporation, separate populations of short red rods and short green rods were mixed together along with individual bundles with maleimide termini and no dye (FIG. 33A and FIG. 35A) in order to link the short, dyed rods together into longer rigid-rod chains. […] The sub-optical wavelength resolution of the STORM technique (stochastic optical reconstruction microscopy) allows clear observation of the ~50 nm long, individual rod segments within final, longer rods. […]

[2] = biological target: the molecule itself; assay: self-association of the peptide into a homotetrameric coiled coil bundle; TEM, cryoTEM and SANS of the linked bundle chains
Experimental: Transmission Electron Microscopy (TEM): Carbon-coated 200 mesh copper grids (CF200-Cu, Electron Microscopy Sciences, Inc.) were freshly treated by glow discharge using a plasma cleaner (PDC-32G, Harrica Plasma, Inc.) at low level for 20 seconds. Then, 4 µL sample solution was dropped on the grid. After 1 min, the remaining liquid was blotted from the edge of the grid using filter paper. The grid was allowed to air-dry for 10 min before TEM observation on FEI TALOS™ F200C microscope. For negative staining, 6 µL aqueous solution of phosphotungstic acid (2 w/v %, pH 6) was applied to the dried grid and incubated for 15-30 seconds. Then the grid was blotted with filter paper. The stained grid was allowed to sit for 10 min before TEM observation.

Protein | binding result [1] | binding result [2]
{Butanoyl(4-maleimido)}-DEKIKNMADQIKHMAWMIDRMAEK(NBD)IDREA-NH2 (not fully specified (residue 1), also called green dye peptide) [Peptide 3 (SEQ ID NO: 3, maleimide N-terminus, nitrobenzofurazan dye on a lysine side chain)] | binds | –
H-CDEEIRRMAEEIRQMAERIQQMAEQIQQEA-NH2 (not fully specified, Four copies associate non-covalently into an antiparallel homotetrameric coiled coil bundle; also called 4459a-C; thiol-containing peptide) [Peptide 2 (bundle-forming peptide with N-terminal cysteine, SEQ ID NO: 1)] | – | binds
{Butanoyl(4-maleimido)}-DEKIKNMADQIKHMAWMIDRMAEKIDREA-NH2 (not fully specified (residue 1), Four copies associate non-covalently into an antiparallel homotetrameric coiled coil bundle; also called P622-A6-1; maleimide-containing peptide) [Peptide 1 (maleimide-functionalized bundle-forming peptide, SEQ ID NO: 3)] | – | binds
{Butanoyl(4-maleimido)}-DEKIKNMADQIKHMAWMIDRMAEK(TAMRA)IDREA-NH2 (not fully specified (residue 1), also called red dye peptide) [Peptide 4 (SEQ ID NO: 3, maleimide N-terminus, tetramethylrhodamine dye on a lysine side chain)] | binds | –
